Source: patent US20230340136A1, “TREATMENT OF CLL” (NOVARTIS AG, priority 2020, published 2023)

Legend:
BTK^C481S = BTK^C481S (Homo sapiens, UniProt Q06187, C481S); conditions: cited from earlier work
BAFF receptor = target: T1, BAFF receptor (Homo sapiens, UniProt Q96RJ3); test: Phase Ib study CVAY736Y2102: BAFF receptor occupancy; assay type: in vivo; conditions: VAY736 doses of 3 mg/kg or above
T1 construct: endogenous in cells; host or cells: B cells / tissue of CLL patients in study CVAY736Y2102 (for A6: simulated by a PK/PD model, not measured)
Source text: (§1) The dosing cycle is 28 days. […] During the dose expansion part of the study, ibrutinib will be continued at the same dose schedule as tolerated before study enrollment, see exclusion criteria above for additional information on dose level.

BAFF = test: Phase Ib study CVAY736Y2102: free (soluble) BAFF; design: species or system human; conditions: in vivo
Source text: as §1

[1] = Phase Ib study CVAY736Y2102: pharmacokinetics of VAY736; assay type: in vivo, human; conditions: in combination with ibrutinib
Source text: as §1

Chain of BTK^C481S (Q06187 whole entry C481S): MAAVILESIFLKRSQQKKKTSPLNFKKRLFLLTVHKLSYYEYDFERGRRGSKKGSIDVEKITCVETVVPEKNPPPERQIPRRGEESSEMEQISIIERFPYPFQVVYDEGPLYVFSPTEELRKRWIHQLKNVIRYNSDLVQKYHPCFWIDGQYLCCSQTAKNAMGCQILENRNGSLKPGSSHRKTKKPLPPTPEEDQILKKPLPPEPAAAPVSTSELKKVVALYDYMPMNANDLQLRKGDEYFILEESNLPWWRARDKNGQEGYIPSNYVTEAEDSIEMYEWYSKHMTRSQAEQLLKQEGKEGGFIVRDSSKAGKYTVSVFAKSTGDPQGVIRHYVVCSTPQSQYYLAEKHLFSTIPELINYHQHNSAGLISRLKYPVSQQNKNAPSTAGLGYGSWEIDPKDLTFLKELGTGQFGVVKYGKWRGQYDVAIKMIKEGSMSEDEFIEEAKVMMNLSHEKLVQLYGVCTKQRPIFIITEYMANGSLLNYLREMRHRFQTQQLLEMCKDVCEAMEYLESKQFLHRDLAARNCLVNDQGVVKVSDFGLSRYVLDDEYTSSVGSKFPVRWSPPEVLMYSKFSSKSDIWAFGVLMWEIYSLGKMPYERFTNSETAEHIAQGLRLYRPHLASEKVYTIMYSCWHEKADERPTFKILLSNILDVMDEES

| Compound | activity against ibrutinib-resistant BTK^C481S mutation (BTK^C481S) | Tissue receptor occupancy (BAFF receptor) [%] | Free BAFF (BAFF) | VAY736 concentration: dose dependence [1] | dose at which linear PK achieved [1] [mg/kg] |
| --- | --- | --- | --- | --- | --- |
| C[C@H]1CN(C2COC2)CCN1c1ccc(Nc2cc(-c3ccnc(N4CCn5c(cc6c5CC(C)(C)C6)C4=O)c3CO)cn(C)c2=O)nc1 [fenebrutinib] | active against ibrutinib-resistant BTK^C481S |  |  |  |  |
| VAY736: non-fucosylated human IgG1 kappa anti-BAFFR antibody, heavy chain SEQ ID NO: 9, light chain SEQ ID NO: 10 |  | > 99 | accumulated to steady state with no dose relationship | increased with dose | ≥ 3 |
